Data: US7057012B1, “PTH functional domain conjugate peptides, derivatives thereof and novel tethered ligand-receptor molecules” (The General Hospital Corporation, priority 1998, dated 2006)
Read-outs that look alike come from different tables or passages of the source. No end group written: not given here.

Assays:
human PTH-1 receptor = biological target: T1, human PTH-1 receptor (Homo sapiens, UniProt Q03431); assay: cAMP accumulation in COS cells expressing the human PTH-1 receptor; type: cell-based; settings: for cAMP accumulation as compared to basal levels in un-stimulated cells: 60 min at 21° C.
T1 sequence (Q03431 27-593): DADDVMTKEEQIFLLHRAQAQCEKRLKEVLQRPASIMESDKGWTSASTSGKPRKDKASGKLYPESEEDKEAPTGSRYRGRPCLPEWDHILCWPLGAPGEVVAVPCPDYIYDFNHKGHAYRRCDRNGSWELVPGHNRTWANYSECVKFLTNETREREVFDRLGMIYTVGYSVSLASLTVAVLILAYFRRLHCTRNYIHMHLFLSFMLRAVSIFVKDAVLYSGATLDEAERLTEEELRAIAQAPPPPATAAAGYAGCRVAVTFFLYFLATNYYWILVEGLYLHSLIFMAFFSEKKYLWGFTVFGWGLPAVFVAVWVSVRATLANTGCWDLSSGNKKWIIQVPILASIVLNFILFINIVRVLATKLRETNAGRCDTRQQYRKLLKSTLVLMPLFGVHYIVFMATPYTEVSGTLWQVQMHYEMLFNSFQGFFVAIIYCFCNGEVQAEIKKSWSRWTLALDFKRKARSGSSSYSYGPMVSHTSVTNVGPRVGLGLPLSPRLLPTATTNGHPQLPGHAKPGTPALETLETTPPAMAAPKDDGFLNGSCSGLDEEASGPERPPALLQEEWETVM
Method: Intracellular cAMP accumulation is measured as described previously (Abou-Samra et al., J. Biol. Chem. 262:1129, 1986). Cells grown in 24-well plates are rinsed with culture medium containing 0.1% BSA and 2 mM IBMX. The cells are then incubated with an S-(L)n-B compound or derivatives thereof for 60 min. at 21° C. The supernatant is removed and the cells immediately frozen by placing the whole plate in dry ice powder. Intracellular cAMP is extracted by thawing the cells in 1 ml of 50 mM HCl and analyzed by a specific radioimmunoassay using an anti-cAMP antibody (e.g., Sigma, St. Louis, Mo.). A cAMP analog (2′-O-monosuccinyl-adenosine 3′:5′-cyclic monophosphate tyrosyl methyl ester, obtained from Sigma) which is used a tracer for cAMP is iodinated by the chloramine T method. Free iodine is removed by adsorbing the iodinated cAMP analog onto a C18Sep-pak cartridge (Waters, Milford, Mass.). After washing with dH20, the iodinated cAMP analog is eluted from the Sep-pak Cartridge with 40% acetonitrille (ACN) and 0.1% trifluoroacetic acid (TFA). The iodinated cAMP analog is lyophilized, reconstituted in 1 ml 0.1% TFA, and injected into a C18 reverse phase HPLC column (Waters). The column is equilibrated with 10% ACN in 0.1% TFA, and eluted with gradient of 10–30% ACN in 0.1% TFA. This allows separation of the mono-iodinated cAMP analog from the non-iodinated cAMP analog. The tracer is stable for up to 4 months when stored at −20° C. The standard used for the assay, adenosine 3′:5′-cyclic monophosphate, may be purchased from Sigma. Samples (1–10 µl of HCl extracts) or standards ([…]) are diluted in 50 Mm Na-acetate (pH 5.5), and acetylated with 10 μl of mixture of triethylamine and acetic anhydride (2:1 vol:vol). After acetylation, cAMP antiserum (100 μl) is added from a stock solution (1:4000) made in PBS (pH 7.4), 5 mM EDTA and 1% normal rabbit serum. The tracer is diluted in PBS (pH 7.4) with 0.1% BSA, and added (20,000 cpm/tube). The assay is incubated at 4° C. overnight. […] The supernatant is removed and the bound radioactivity is counted in a gamma-counter (Micromedic). […]
In order to screen for agonist activity, functional domain conjugate peptides of the invention were utilized in in vitro assays designed to measure cellular response via cAMP accumulation. Intracellular cAMP accumulation is measured as described previously (Abou-Samra et al., J. Biol. Chem. 262:1129, 1986).
Cells grown in 24-well plates are rinsed with culture medium containing 0.1% BSA and 2 mM IBMX. […] Intracellular cAMP is extracted by thawing the cells in 1 ml of 50 mM HCl and analyzed by a specific radioimmunoassay using an anti-cAMP antibody (e.g., Sigma, St. Louis, Mo.). […]

wildtype PTH receptor = biological target: T2, wildtype PTH receptor (Rattus norvegicus, UniProt P25961); settings: read-out: EC50, cAMP formation, cited from earlier work
T2 sequence (P25961 27-591): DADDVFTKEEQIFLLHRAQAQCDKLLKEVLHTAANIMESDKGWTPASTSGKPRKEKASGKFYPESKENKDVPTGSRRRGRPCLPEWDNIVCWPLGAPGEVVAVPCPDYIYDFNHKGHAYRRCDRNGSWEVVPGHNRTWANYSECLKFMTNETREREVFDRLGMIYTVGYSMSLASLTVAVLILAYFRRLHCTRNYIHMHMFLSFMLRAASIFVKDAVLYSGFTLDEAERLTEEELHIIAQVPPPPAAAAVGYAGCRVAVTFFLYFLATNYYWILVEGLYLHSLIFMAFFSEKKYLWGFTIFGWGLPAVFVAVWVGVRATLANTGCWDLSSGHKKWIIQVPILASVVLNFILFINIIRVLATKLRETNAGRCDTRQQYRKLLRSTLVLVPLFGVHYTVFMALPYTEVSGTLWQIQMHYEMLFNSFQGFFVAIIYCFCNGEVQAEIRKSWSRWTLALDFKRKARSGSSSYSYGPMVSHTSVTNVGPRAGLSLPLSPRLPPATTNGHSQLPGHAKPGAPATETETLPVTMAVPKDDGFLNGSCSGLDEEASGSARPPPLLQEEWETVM

truncated PTH receptor = biological target: T3, truncated PTH receptor (Rattus norvegicus, UniProt P25961); settings: cited from earlier work
T3 sequence (P25961 with tags, fused parts or gaps): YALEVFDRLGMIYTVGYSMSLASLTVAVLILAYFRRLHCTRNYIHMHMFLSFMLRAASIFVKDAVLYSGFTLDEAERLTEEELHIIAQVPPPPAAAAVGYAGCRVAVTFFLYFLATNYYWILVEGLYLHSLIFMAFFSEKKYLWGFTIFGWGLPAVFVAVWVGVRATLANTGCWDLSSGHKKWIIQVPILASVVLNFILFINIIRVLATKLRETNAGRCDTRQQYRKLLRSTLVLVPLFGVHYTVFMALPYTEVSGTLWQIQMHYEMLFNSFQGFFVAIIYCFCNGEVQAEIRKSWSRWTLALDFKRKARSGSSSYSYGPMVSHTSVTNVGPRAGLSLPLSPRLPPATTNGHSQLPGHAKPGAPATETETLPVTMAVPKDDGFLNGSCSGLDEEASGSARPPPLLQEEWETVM

For “PTH (1–9)-(Gly)7-PTH(17–31) (AVSEIQLMHGGGGGGGSMERVEWLRKKLQDV; modified PTH sequence) [PG7, S-(L)n-B peptide: PTH(1–9), linker (Gly)7, PTH(17–31)]”, the “cAMP accumulation as compared to basal levels in un-stimulated cells” value (human PTH-1 receptor) was “increased levels of cAMP accumulation”.

For PTH(1–34), the EC50 (wildtype PTH receptor; wildtype receptor) is given as ~0.003 µM and the “potency, cAMP formation” value (truncated PTH receptor) is given as “severly diminished”.

For [Ala^1] PTH(1–14), the “bioactivity over the background level of bioactivity of the native PTH(1–14) peptide” value (human PTH-1 receptor; serine at position one replaced by alanine) was “measurable increase in bioactivity”.

With “PTH(1–9)-(Gly)5-PTH(15–31) (AVSEIQLMHGGGGGLNSMERVEWLRKKLQDV; modified PTH sequence) [PG5, S-(L)n-B peptide: PTH(1–9), linker (Gly)5, PTH(15–31)]” the “cAMP accumulation as compared to basal levels in un-stimulated cells” value (human PTH-1 receptor) was “increased levels of cAMP accumulation”.

With “PTH (1–5)-(Gly)9-PTH(15–31) (AVSEIGGGGGGGGGLNSMERVEWLRKKLQDV; modified PTH sequence) [PG9, S-(L)n-B peptide: PTH(1–5), linker (Gly)9, PTH(15–31)]” the “cAMP accumulation as compared to basal levels in un-stimulated cells” value (human PTH-1 receptor) was “increased levels of cAMP accumulation”.

In the case of “PTH(1–14) (AVSEIQLMHNLGKH; not fully specified (C-terminus); listed as Homo sapiens) [N-terminal fragment (1–14) of parathyroid hormone]”, the EC50 (wildtype PTH receptor; intact receptor) is given as ~100 µM and the EC50 (truncated PTH receptor; read-out: EC50, cAMP formation) is given as ~100 µM.
